Reference: patent publication US20240116985A1 (published 2024)
Starred links: 1 amine or outer side, 2 acyl side, 3 side chain; linkers in the order of their positions; H or OH if unused. Positions of bridges follow the written chain, without caps; N, C: chain ends. Non-standard residues stand in square brackets, D forms with d. Primed or numbered codes have the meaning given here. PyrS2″ = (S)-3-amino-1-((pent-4-en-1-yloxy)carbonyl)pyrrolidine-3-carboxylic acid (stapling residue), C=CCCCOC(=O)N1CC[C@@](N[*:1])(C(=O)[*:2])C1; B5(16) = 2-amino-2-(pent-4-en-1-yl)hept-6-enoic acid = 2,2-bis(4-pentenyl)glycine (stitching residue), C=CCCCC(CCCC=C)(N[*:1])C(=O)[*:2]; B5(4) = 2,2-bis(4-pentenyl)glycine = 2-amino-2-(pent-4-en-1-yl)hept-6-enoic acid (stitching residue), C=CCCCC(CCCC=C)(N[*:1])C(=O)[*:2]; B5(5) = 2,2-bis(4-pentenyl)glycine, 2-amino-2-(pent-4-en-1-yl)hept-6-enoic acid (stitching residue), C=CCCCC(CCCC=C)(N[*:1])C(=O)[*:2]; TfeGA = (S)-2-amino-3-((carboxymethyl)(2,2,2-trifluoroethyl)amino)propanoic acid, O=C([C@H](CN(CC(=O)[*:3])CC(F)(F)F)N[*:1])[*:2]; PyrS2 = (S)-3-amino-1-((pent-4-en-1-yloxy)carbonyl)pyrrolidine-3-carboxylic acid, C=CCCCOC(=O)N1CC[C@@](N[*:1])(C(=O)[*:2])C1; PyrS1 = (S)-3-amino-1-((but-3-en-1-yloxy)carbonyl)pyrrolidine-3-carboxylic acid, C=CCCOC(=O)N1CC[C@@](N[*:1])(C(=O)[*:2])C1; B5(9) = 2-amino-2-(pent-4-en-1-yl)hept-6-enoic acid (2,2-bis(4-pentenyl)glycine), C=CCCCC(CCCC=C)(N[*:1])C(=O)[*:2]; PyrS = (S)-1-((allyloxy)carbonyl)-3-aminopyrrolidine-3-carboxylic acid, C=CCOC(=O)N1CC[C@@](N[*:1])(C(=O)[*:2])C1; B5(19) = 2-amino-2-(pent-4-en-1-yl)hept-6-enoic acid (bis(4-pentenyl)glycine), C=CCCCC(CCCC=C)(N[*:1])C(=O)[*:2]; MorphAsn = (S)-2-amino-4-morpholino-4-oxobutanoic acid, O=C(C[C@H](N[*:1])C(=O)[*:2])N1CCOCC1; B6 = 2-amino-2-(hex-5-en-1-yl)oct-7-enoic acid, C=CCCCCC(CCCCC=C)(N[*:1])C(=O)[*:2]; Me2Asn = listed as N4-methyl-L-asparagine, CNC(=O)C[C@H](N[*:1])C(=O)[*:2]; Phe(3-COOH) = N[C@@H](Cc1cccc(C(=O)O)c1)C(=O)O; Phe(2-CF3) = N[C@@H](Cc1ccccc1C(F)(F)F)C(=O)O; d(βAsp) = O=C(O)[C@@H](CC(=O)[*:2])N[*:1]; βAsp = O=C(O)[C@H](CC(=O)[*:2])N[*:1]; Bta = N[C@@H](Cc1csc2ccccc12)C(=O)O; αAllylPro = C=CC[C@@]1(C(=O)O)CCCN1; tBuAla = CC(C)(C)C[C@H](N)C(=O)O; 3Thi = N[C@@H](Cc1ccsc1)C(=O)O; Cha = N[C@@H](CC1CCCCC1)C(=O)O; S8 = C=CCCCCCC[C@](C)(N)C(=O)O; BnBoroleK = not defined here; PyrS2(4) = not defined here; TfeGA″ = not defined here; 34ClF = not defined here; Nle = CCCC[C@H](N)C(=O)O; Aib = CC(C)(N)C(=O)O

T1: B-cat-Halo (beta-catenin HaloTag construct expressed in HEK293 cells) (UniProt P35222 1-781)
T1 sequence (looked up): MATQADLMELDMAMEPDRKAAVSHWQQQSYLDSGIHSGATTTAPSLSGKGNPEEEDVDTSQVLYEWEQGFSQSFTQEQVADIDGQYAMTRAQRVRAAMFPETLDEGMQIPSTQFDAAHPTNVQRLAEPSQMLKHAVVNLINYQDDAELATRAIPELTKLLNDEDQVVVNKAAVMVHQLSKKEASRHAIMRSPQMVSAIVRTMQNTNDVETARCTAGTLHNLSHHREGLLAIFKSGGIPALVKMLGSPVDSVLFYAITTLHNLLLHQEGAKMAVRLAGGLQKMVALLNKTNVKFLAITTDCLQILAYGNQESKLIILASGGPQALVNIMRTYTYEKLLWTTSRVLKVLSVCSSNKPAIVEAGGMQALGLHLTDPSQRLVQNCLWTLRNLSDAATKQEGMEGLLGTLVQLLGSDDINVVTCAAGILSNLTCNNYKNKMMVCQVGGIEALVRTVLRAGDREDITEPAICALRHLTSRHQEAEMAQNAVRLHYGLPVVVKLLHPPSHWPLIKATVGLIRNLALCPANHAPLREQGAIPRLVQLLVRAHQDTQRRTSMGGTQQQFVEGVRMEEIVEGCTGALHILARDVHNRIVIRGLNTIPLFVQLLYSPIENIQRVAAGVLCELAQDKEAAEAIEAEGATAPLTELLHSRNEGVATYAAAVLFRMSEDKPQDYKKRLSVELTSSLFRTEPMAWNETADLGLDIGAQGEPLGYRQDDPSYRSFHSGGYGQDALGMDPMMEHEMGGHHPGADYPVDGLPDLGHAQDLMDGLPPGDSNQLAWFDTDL

T2: B-cat-Halo (beta-catenin HaloTag construct expressed in HEK293 cells) (UniProt P35222 1-781)
T2 sequence (looked up): T1 sequence (looked up)

T3: full-length beta-Catenin (Uniprot ID P35222) (Homo sapiens (Human), UniProt P35222 1-781)
T3 construct: also called bCat; B-Catenin
T3 sequence: T1 sequence (looked up)

B1: I-2183 (peptide)
peptide: Ac-[αAllylPro]D[tBuAla][B5(4)]DDAAFL[PyrS2″][3Thi][34ClF]Q-NH2
modifications: staple 1-4, 4-11; reading uncertain; also: printed as Ac-PL3-Asp-Npg-B5-Asp-Asp-Ala-Ala-Phe-Leu-PyrS2-3Thi-34C1F-Gln-NH2
B2: I-2185 (peptide)
peptide: Ac-[αAllylPro]D[tBuAla][B5(4)]D[TfeGA]AAFL[PyrS2″][3Thi][Bta]Q-NH2
modifications: staple 1-4, 4-11; not fully specified (residue 9); also: later-eluting HPLC isomer peak
B3: I-2190 (peptide)
peptide: Ac-[αAllylPro]D[tBuAla][B5(4)]D[Phe(3-COOH)]SAFL[PyrS2(4)][3Thi][Bta]V-NH2
modifications: staple 1-4, 4-11; reading uncertain; also: printed as Ac-PL3-Asp-Npg-B5-Asp-3COOHF-Ser-Ala-Phe-Leu-PyrS2-3Thi-BztA-Val-NH2
B4: I-2188 (peptide)
peptide: Ac-[αAllylPro]D[tBuAla][B5(4)]D[Phe(3-COOH)][Me2Asn]AFL[PyrS2(4)][3Thi][Bta]A-NH2
modifications: staple 1-4, 4-11; reading uncertain; also: printed as Ac-PL3-Asp-Npg-B5-Asp-3COOHF-Me2Asn-Ala-Phe-Leu-PyrS2-3Thi-BztA-Ala-NH2
B5: I-2182 (peptide)
peptide: Ac-[αAllylPro]D[tBuAla][B5(4)]DDAAFN[PyrS2″][3Thi][34ClF]Q-NH2
modifications: staple 1-4, 4-11; reading uncertain; also: printed as Ac-PL3-Asp-Npg-B5-Asp-Asp-Ala-Ala-Phe-Asn-PyrS2-3Thi-34C1F-Gln-NH2
B6: I-661 (peptide)
peptide: XDIXDEASFQXFXQ
modifications: not fully specified; Ac-PL3-Asp-Ile-B5-Asp-Glu-Ala-Ser-Phe-Gln-S8-Phe-BztA-Gln-NH2; N-terminal acetyl, C-terminal amide; PL3(1), B5(4), S8(11) stapled by olefin metathesis (1-4 and 4-11); BztA at 13
notes: Stapled peptide
B7: I-659 (peptide)
peptide: XDIXDEALFQXFXQ
modifications: not fully specified; Ac-PL3-Asp-Ile-B5-Asp-Glu-Ala-Leu-Phe-Gln-S8-Phe-BztA-Gln-NH2; N-terminal acetyl, C-terminal amide; PL3(1), B5(4), S8(11) stapled by olefin metathesis (1-4 and 4-11); BztA at 13
notes: Stapled peptide
B8: I-658 (peptide)
peptide: XDIXDEALFQXFXQ
modifications: not fully specified; Ac-PL3-Asp-Ile-B5-Asp-Glu-Ala-Leu-Phe-Gln-S8-Phe-BztA-Gln-NH2; N-terminal acetyl, C-terminal amide; PL3(1), B5(4), S8(11) stapled by olefin metathesis (1-4 and 4-11); BztA at 13
notes: Stapled peptide

Biological target: T1, B-cat-Halo (beta-catenin HaloTag …)
Experiment: cell-based or functional assay

Binder | NanoBRET Abs IC50 [µM]
B1 | 5
Ac-[αAllylPro]D[tBuAla][B5(4)]D[Phe(3-COOH)][Me2Asn]AFL[PyrS2″][3Thi][Bta]V-NH2 (staple 1-4, 4-11) [I-2191] | 29.5
Ac-[αAllylPro]D[tBuAla][B5(4)]D[Phe(3-COOH)]SAFL[PyrS2″][3Thi][Bta][tBuAla]-NH2 (staple 1-4, 4-11) [I-2195] | 21
B2 | 6.1
B3 | 33.4
Ac-[αAllylPro]D[tBuAla][B5(4)]D[Phe(3-COOH)][Aib]AFL[PyrS2″][3Thi][Bta][tBuAla]-NH2 (staple 1-4, 4-11) [I-2194] | 8.8
Ac-[αAllylPro]D[tBuAla][B5(4)]D[TfeGA″]AAFL[PyrS2(4)][3Thi][Bta][BnBoroleK]-NH2 (staple 1-4, 4-11; reading uncertain; also: later-eluting HPLC isomer peak) [I-2187] | 10.8
Ac-[αAllylPro]D[tBuAla][B5(4)]D[Phe(3-COOH)][Nle]AFL[PyrS2″][3Thi][Bta]V-NH2 (staple 1-4, 4-11) [I-2189] | 33.4
Ac-[αAllylPro]D[tBuAla][B5(4)]D[Phe(3-COOH)][Me2Asn]AFL[PyrS2″][3Thi][Bta][tBuAla]-NH2 (staple 1-4, 4-11) [I-2196] | 39.3
Ac-[αAllylPro]D[tBuAla][B5(4)]D[Phe(3-COOH)]QAFL[PyrS2″][3Thi][Bta][tBuAla]-NH2 (staple 1-4, 4-11) [I-2192] | 16.1
Ac-[αAllylPro]D[tBuAla][B5(4)]D[Phe(3-COOH)][Nle]AFL[PyrS2″][3Thi][Bta][tBuAla]-NH2 (staple 1-4, 4-11) [I-2193] | 39.9
B4 | 7.6
B5 | 11.1

Biological target: T2, B-cat-Halo (beta-catenin HaloTag …)
Experiment: cell-based or functional assay

Binder | NanoBRET Abs IC50 (uM); Bcat-Halo / TCF4-Luc in HEK293 cells [µM]
Ac-[αAllylPro]D[tBuAla][B6]D[Phe(3-COOH)]AAFL[PyrS][Phe(2-CF3)][Bta]Q-NH2 (staple 1-4, 4-11) [I-2518] | > 20
Ac-[αAllylPro]D[tBuAla][B6]D[Phe(3-COOH)]QAFL[PyrS2][Phe(2-CF3)][Bta]A-NH2 (staple 1-4, 4-11) [I-2517] | 30
Ac-[αAllylPro]D[tBuAla][B6]D[Phe(3-COOH)]QAFL[PyrS2][Phe(2-CF3)][Bta]A-NH2 (staple 1-4, 4-11) [I-2515] | > 20
Ac-[αAllylPro]D[tBuAla][B6]D[Phe(3-COOH)]AAFL[PyrS2][Phe(2-CF3)][Bta]Q-NH2 (staple 1-4, 4-11) [I-2513] | > 20
Ac-[αAllylPro]D[tBuAla][B6]D[Phe(3-COOH)]QAFL[PyrS1][Phe(2-CF3)][Bta]A-NH2 (staple 1-4, 4-11) [I-2510] | 7.8
Ac-[αAllylPro]N[Cha][B5(4)]DQK(Ac)AFL[PyrS2]F[Bta][MorphAsn]-NH2 (staple 1-4, 4-11) [I-2522] | > 20

Biological target: T3, full-length beta-Catenin (Uniprot ID …)
Experiment: fluorescence polarization competition; full-length beta-catenin, competitor 5FAM-TCF4(10-53) probe
How it was run: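 Data fitted to 1:1 binding model with hill slope from duplicate reads taken after 60 minutes at 20° C. in the dark.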

Binder | IC50 [µM]
Ac-[αAllylPro]DI[B5(5)][d(βAsp)]EAAFQ[S8]F[Bta]Q-NH2 (staple 1-4, 4-11, Stapled peptide) [I-674] | 5
Ac-[αAllylPro]DI[B5(9)][βAsp]EAAFQ[S8]F[Bta]Q-NH2 (staple 1-4, 4-11, Stapled peptide) [I-673] | 5
Ac-[αAllylPro][d(βAsp)]I[B5(9)]DEAAFQ[S8]F[Bta]Q-NH2 (staple 1-4, 4-11, Stapled peptide) [I-669] | 0.451
Ac-[αAllylPro][d(βAsp)]I[B5(9)]DEAAFQ[S8]F[Bta]Q-NH2 (staple 1-4, 4-11, Stapled peptide) [I-668] | 0.675
B6 | 0.045
Ac-[αAllylPro]DI[B5(19)]DEAFFQ[S8]F[Bta]Q-NH2 (staple 1-4, 4-11, Stapled peptide) [I-660] | 0.544
Ac-[αAllylPro]DI[B5(16)]DESAFQ[S8]F[Bta]Q-NH2 (staple 1-4, 4-11, Stapled peptide) [I-652] | 0.072
Ac-[αAllylPro]DI[B5(9)]DEAWFQ[S8]F[Bta]Q-NH2 (staple 1-4, 4-11, Stapled peptide) [I-664] | 0.996
B7 | 0.43
Ac-[αAllylPro]DI[B5(9)]DEAWFQ[S8]F[Bta]Q-NH2 (staple 1-4, 4-11, Stapled peptide) [I-665] | 0.923
B8 | 0.546
Ac-[αAllylPro]DI[B5(16)]DEWAFQ[S8]F[Bta]Q-NH2 (staple 1-4, 4-11, Stapled peptide) [I-655] | 0.183
Ac-[αAllylPro]DI[B5(19)]DEAQFQ[S8]F[Bta]Q-NH2 (staple 1-4, 4-11, Stapled peptide) [I-663] | 0.043
